# Where two headings read alike, the source gives them in different places.
# T1: huMS4A4A-ECL2 free-peptide (human)
# T1 construct: synthetic, free or BSA-conjugated, coated on the plate; also called human MS4A4A ECL2 peptide; huMS4A4A-ELC2 free-peptide
# T1 peptide: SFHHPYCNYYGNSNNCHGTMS
# Tests used:
# [1] = biological target: T1, huMS4A4A-ECL2 free-peptide; experiment: peptide ELISA, murine antibody
# Method: Coated plates were then blocked with ELISA diluent (PBS+0.5% BSA+0.05% Tween20) for 1-hour, washed 3×300 μL in PBST (PBS+0.05% Tween20, Thermo Cat#28352), and then the antibodies were added to the plate ([…]). After 30 mins incubation (room temperature, with shaking), the plates were washed 3×300 μL in PBST. […] After a final set of washes (3×300 μL in PBST), 50 μL of TMB substrate (BioFx Cat#TMBW-1000-01) was added and the reaction was then quenched after 5-10 mins with 50 μL of stop solution (BioFx Cat#BSTP-1000-01). The quenched reaction wells were detected for absorbance at […] with a BioTek Synergy Microplate Reader using GENS 2.04 software.
# [2] = biological target: T2, recombinant MS4A4A soluble polypeptide JS5; experiment: ELISA, 0.11 ug/ml antibody
# T2 construct: also called JS5.His
# Method: (§1) Anti-MS4A4A antibodies of the present disclosure were tested for their ability to bind to the different recombinant MS4A4A soluble polypeptides, as described in Example 2, as follows. Nucleic acid encoding the VH and VL domains of humanized anti-MS4A4A antibodies of the present disclosure were cloned into pcDNA3.4 vector which contains either the human IgG1 heavy chain constant domain or human kappa constant domain. The humanized anti-MS4A4A antibodies were expressed in Expi293 cells and were purified by Mab select antibody purification resin (GE Healthcare Life Science, cat#17519902) following the manufacture's protocol. ELISA was performed to measure binding of anti-MS4A4A antibodies of the present disclosure the recombinant MS4A4A soluble polypeptides. 1 μg/ml biotinylated antigens were preincubated on the streptavidin-coated ELISA plates (Thermo Scientific, cat#PI15120) for 1 hour. Plates were washed 3 times, followed by the addition of antibodies (1 μg/ml, 0.33 μg/ml, and 0.11 μg/ml antibodies. Plates were incubated at room temperature with shaking for 1 hr, washed 3 times, then 1/2500 dilution of HRP conjugates goat anti human kappa antibodies added (SigmaAldrich cat#. A7164-1ML).
# [3] = biological target: T3, recombinant MS4A4A soluble polypeptide JS1; experiment: ELISA, 1 ug/ml antibody
# T3 construct: also called JS1.His; loop grafted antigen
# Outline: (§2)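 Humanized anti-MS4A4A antibodies, expressed as human IgG1/kappa in Expi293 cells and protein A-purified, were added to streptavidin plates precoated 1 h with 1 μg/ml biotinylated antigen. Antibodies at 1, 0.33 or 0.11 μg/ml bound 1 hr at room temperature with shaking; detection used HRP goat anti-human kappa.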
# [4] = biological target: T2, recombinant MS4A4A soluble polypeptide …; experiment: ELISA, 1 ug/ml antibody
# Outline: as §2
# [5] = biological target: T2, recombinant MS4A4A soluble polypeptide …; experiment: ELISA, 0.33 ug/ml antibody
# Method: as §1
# human MS4A4A [6] = biological target: T4, human MS4A4A (human, UniProt Q96JQ5 1-239); experiment: FACS, U937-huMS4A4A, 5 ug/ml
# Method: Anti-MS4A4A antibodies tested were either mouse IgGs purified from hybridoma supernatant or human IgG1 Fc chimeras produced recombinantly in Expi293 cells. Affinity binding to cells was determined as follows. Briefly, cells were harvested, washed, and labeled with Aqua Live/Dead for viability discrimination. After a wash with PBS, 2×10\hat{ }4 cells were aliquoted per well in 96-well U-bottom plates and incubated with 50 μL of purified anti-MS4A4A antibody at various concentrations (3× dilutions starting at 10 μg/mL) in FACS buffer (PBS+2% FBS+1 mM EDTA). After this primary incubation, the supernatant was removed via centrifugation, washed 2× with 150 μL of ice-cold FACS buffer, and incubated with the appropriate secondary antibody on ice for 15 minutes. Following the secondary antibody incubation, the cells were again washed 2× with ice-cold FACS buffer and resuspended in a final volume of 200 μL of FACS buffer. Flow cytometry analysis was performed on a FACSCanto system (BD Biosciences). Binding data was expressed as Median Fluorescent Intensity (MFI).
# These experiments were performed using anti-MS4A4A antibodies at a concentration of 5 μg/ml and were assayed for cell binding by flow cytometry.
# human MS4A4A [7] = biological target: T4, human MS4A4A; experiment: FACS, U937-huMS4A4A, 5 ug/ml; remark: listed apart in the source
# Outline: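 U937 cells expressing human MS4A4A were viability-stained, then 2×10^4 cells/well were incubated with mouse hybridoma IgG or recombinant human IgG1 Fc chimera in PBS/2% FBS/1 mM EDTA. A secondary antibody was then applied on ice for 15 min. Binding was read by flow cytometry as median fluorescence intensity.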
# [8] = biological target: T3, recombinant MS4A4A soluble polypeptide …; experiment: ELISA, biotin-antigen on streptavidin plate
# Method: as §1
# [9] = biological target: T5, negative control polypeptide JS4; experiment: ELISA, biotin-antigen on streptavidin plate
# T5 construct: negative control for JS1; also called JS4.His
# Method: as §1
# [10] = biological target: T6, negative control polypeptide JS10; experiment: ELISA, biotin-antigen on streptavidin plate
# T6 construct: negative control for JS5 and JS6; also called JS10.His
# Method: as §1
# [11] = biological target: T2, recombinant MS4A4A soluble polypeptide …; experiment: ELISA, biotin-antigen on streptavidin plate
# Method: as §1
# [12] = biological target: T7, recombinant MS4A4A soluble polypeptide JS6; experiment: ELISA, biotin-antigen on streptavidin plate
# T7 construct: also called JS6.His
# Method: as §1
# human MS4A4A [13] = biological target: T4, human MS4A4A; experiment: cell-based or functional assay
# human MS4A4A [14] = biological target: T4, human MS4A4A; experiment: cell-based or functional assay; remark: listed apart in the source
binding result [1],ELISA OD [2],OD450 [3],ELISA OD [4],ELISA OD [5],MFI (human MS4A4A [6]),MFI (human MS4A4A [7]),ELISA OD [8],ELISA OD [9],ELISA OD [10],ELISA OD [11],ELISA OD [12],"EC50 of the increase of sTREM2, primary human macrophages (human MS4A4A [13]) [µg/mL]","EC50 of the increase of mTREM2, primary human macrophages (human MS4A4A [14]) [µg/mL]",Binder
binds,0.079,0.141,0.188,0.111,31700,216,1.16,0.111,0.084,1.22,1.23,–,–,"anti-MS4A4A antibody 4A-202 (antibody, V domains shown, murine parental; tested as mouse IgG or as human IgG1 Fc chimera (hFc), told under assay) VH: QVQLQQSGAELARPGASVKLSCKASGYTFTNYWMQWVKQRPGQGLEWIGATHPGHGDTRYTQKFKGKATLSADKSSSTAYMQLSNLASEDSAVYYCAREEVYYGFRSYWYFDVWGRGTLVTVSS VL: not shown"
–,–,–,–,–,–,–,–,–,–,–,–,0.069,0.039,"anti-MS4A4A antibody 4A-450 NSLF huIgG1 (antibody, V domains shown) VH: QVQLVQSGSELKKPGASVKVSCKASGYAFTSYGLSWVRQAPGQGLEWMGWINTYSGVPTYAQGFTGRFVFSLDTSVSTAYLQISSLKAEDTAVYYCARTMADYWGQGTLVTVSS VL: DVVMTQSPLSLPVTLGQPASISCKSSRSLLYSAGKTYLSWFQQRPGQSPRRLIYLVSKLDSGVPDRFSGSGSGTDFTLKISRVEAEDVGVYYCWQGIDFHQTFGGGTKVEIKR"
